Measurements: paper PMC12407373, “Kindlin Regulates Mechanosensitive Activation and Adhesion Assembly of Integrin beta6” (Advanced Science, 2025)
Where no end group is shown, it is not given here.

T1: full-length mouse kindlin2 (mouse, UniProt Q8CIB5 1-680)
T1 construct: full-length mouse kindlin2, cloned into pET28a with 10xHis-SUMO tag and HRV-3C site at the N-terminal; also called kindlin2 protein; source: Escherichia coli Rosetta(DE3), purified (IMAC, tag cleavage by HRV 3C, SEC); not shown: 10xHis, N-terminal, cleaved; SUMO, N-terminal, cleaved
T1 sequence (looked up): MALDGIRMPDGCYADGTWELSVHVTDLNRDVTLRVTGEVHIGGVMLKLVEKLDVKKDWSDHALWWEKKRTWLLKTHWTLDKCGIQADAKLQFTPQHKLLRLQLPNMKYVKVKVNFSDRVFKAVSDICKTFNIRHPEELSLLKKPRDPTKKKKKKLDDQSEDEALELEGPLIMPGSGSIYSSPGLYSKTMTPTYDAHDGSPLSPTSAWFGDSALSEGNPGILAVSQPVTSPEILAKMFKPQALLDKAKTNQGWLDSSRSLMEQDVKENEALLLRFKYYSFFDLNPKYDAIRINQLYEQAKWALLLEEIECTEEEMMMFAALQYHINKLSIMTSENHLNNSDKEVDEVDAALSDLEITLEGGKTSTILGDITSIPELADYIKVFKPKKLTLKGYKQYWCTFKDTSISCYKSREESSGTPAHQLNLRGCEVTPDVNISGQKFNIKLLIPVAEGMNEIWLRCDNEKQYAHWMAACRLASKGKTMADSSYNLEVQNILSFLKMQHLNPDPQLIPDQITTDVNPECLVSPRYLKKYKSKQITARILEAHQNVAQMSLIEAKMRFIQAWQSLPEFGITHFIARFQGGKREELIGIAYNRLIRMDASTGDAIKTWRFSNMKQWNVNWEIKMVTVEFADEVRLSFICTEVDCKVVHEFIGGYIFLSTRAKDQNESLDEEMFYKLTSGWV


Molecular target: T1, full-length mouse kindlin2
Test: MST; Monolith NT.115; FITC-labeled tail peptide constant at 10 µM, kindlin2 titrated 42.5 to 0.0013 µM; 20 mM Tris pH 7.5, 200 mM sodium chloride, 1 mM TCEP, 5% glycerol; 10-20% LED power; Kd model
Conditions: both partners purified

| Kd [µM] | Binder |
| --- | --- |
| 0.42 | KLLMIIHDRREFAKFEKEKMNAKWDTGENPIYKSAVTTVVNPKYEGK (peptide, UniProt P05556 752-798, looked up, also: FITC label, position not given here, cytoplasmic tail of integrin β1; also called cytoplasmic tail of integrin β1; integrin β tail peptide; source: synthetic peptide, synthesized by Sangon Biotech) [FITC-labeled cytoplasmic tail of wildtype integrin β1] |
| 26.6 | FITC-labeled cytoplasmic tail of wildtype integrin β6 (peptide, UniProt P18564 731-788, looked up, also: FITC label, position not given here, cytoplasmic tail of integrin β6; also called cytoplasmic tail of integrin β6; integrin β tail peptide; source: synthetic peptide, synthesized by Sangon Biotech) peptide: KLLVSFHDRKEVAKFEAERSKAKWQTGTNPLYRGSTSTFKNVTYKHREKQKVDLSTDC |
